Drawing on patent US7598225, this text covers mean channel fluorescent intensity for one molecule.

The assay addresses human HLA A2 molecules (human). Nature of the assay: T2 cell binding assay, peptide at 50 ug/ml, surface HLA A2 stained with MAb A2,69, flow cytometry (no peptide: 127.25). To be noted: remark: other sources report otherwise.

B1: PSA peptide 154-163 (peptide)
peptide: VISNDVCAQV
Molecule B1 yielded a mean channel fluorescent intensity of 182.
